Consider one protein from ChEMBL document CHEMBL2074064, “Uptake of cyclic dipeptide by PEPT1 in Caco-2 cells: phenolic hydroxyl group of substrate enhances affinity for PEPT1” (J Pharm Pharmacol, 2002).

Format in all cases: functional, cell-based
Substrate in series [1]: O=C1CNC(=O)[C@H](Cc2ccc(O)cc2)N1
As to the kind of experiment: (§1) TP_TRANSPORTER: uptake in Caco-2 cells.

Substrate in series [2]: O=C1CNC(=O)[C@H](Cc2ccccc2)N1
The series is described as §1.

Substrate in series [3]: O=C1N[C@@H](Cc2ccccc2)C(=O)N[C@H]1CO
The description is as §1.

Substrate in series [4]: O=C1N[C@@H](Cc2ccc(O)cc2)C(=O)N[C@H]1CO
The description is as §1.

B1: Solute carrier family 15 member 1 (Homo sapiens), P46059 (protein)
chain: MGMSKSHSFFGYPLSIFFIVVNEFCERFSYYGMRAILILYFTNFISWDDNLSTAIYHTFVALCYLTPILGALIADSWLGKFKTIVSLSIVYTIGQAVTSVSSINDLTDHNHDGTPDSLPVHVVLSLIGLALIALGTGGIKPCVSAFGGDQFEEGQEKQRNRFFSIFYLAINAGSLLSTIITPMLRVQQCGIHSKQACYPLAFGVPAALMAVALIVFVLGSGMYKKFKPQGNIMGKVAKCIGFAIKNRFRHRSKAFPKREHWLDWAKEKYDERLISQIKMVTRVMFLYIPLPMFWALFDQQGSRWTLQATTMSGKIGALEIQPDQMQTVNAILIVIMVPIFDAVLYPLIAKCGFNFTSLKKMAVGMVLASMAFVVAAIVQVEIDKTLPVFPKGNEVQIKVLNIGNNTMNISLPGEMVTLGPMSQTNAFMTFDVNKLTRINISSPGSPVTAVTDDFKQGQRHTLLVWAPNHYQVVKDGLNQKPEKGENGIRFVNTFNELITITMSGKVYANISSYNASTYQFFPSGIKGFTISSTEIPPQCQPNFNTFYLEFGSAYTYIVQRKNDSCPEVKVFEDISANTVNMALQIPQYFLLTCGEVVFSVTGLEFSYSQAPSNMKSVLQAGWLLTVAVGNIIVLIVAGAGQFSKQWAEYILFAALLLVVCVIFAIMARFYTYINPAEIEAQFDEDEKKNRLEKSNPYFMSGANSQKQM
Take B1: the Km in series [1] is 62.9 µM; in series [2] it was 90.9 µM; in series [3], 118 µM; in series [4], 21.9 µM.
